Measurements from paper PMC9609871 (2022).

Molecular target: PP2A catalytic subunit alpha (Homo sapiens, UniProt P67775)
Assay: biolayer interferometry (PP2A immobilized)

Sequence of PP2A catalytic subunit alpha (P67775 whole entry): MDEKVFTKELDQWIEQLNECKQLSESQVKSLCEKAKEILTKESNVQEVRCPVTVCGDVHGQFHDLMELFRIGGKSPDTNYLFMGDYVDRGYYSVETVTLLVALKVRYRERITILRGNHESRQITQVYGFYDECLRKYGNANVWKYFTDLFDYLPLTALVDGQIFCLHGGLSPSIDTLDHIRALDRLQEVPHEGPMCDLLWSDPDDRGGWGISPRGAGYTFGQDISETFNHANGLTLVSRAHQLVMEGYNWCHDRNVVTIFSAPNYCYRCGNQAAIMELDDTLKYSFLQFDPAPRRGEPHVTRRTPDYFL

Kd: 228 nM
B1: Caspase 9 (protein)
chain: DEADRRLLRRCRLRLVEELQVDQLWDALLSRELFRPHMIEDIQRAGSGSRRDQARQLIIDLETRGSQALPLFISCLEDTGQDMLASFLRTNRQAAKLSKPTLENLTPVVLRPEIRKPEVLRPETPRPVDIGSGGFGDVGALESLRGNADLAYILSMEPCGHCLIINNVNFCRESGLRTRTGSNIDCEKLRRRFSSLHFMVEVKGDLTAKKMVLALLELAQQDHGALDCCVVVILSHGCQASHLQFPGAVYGTDGCPVSVEKIVNIFNGTSCPSLGGKPKLFFIQACGGEQKDHGFEVASTSPEDESPGSNPEPDATPFQEGLRTFDQLDAISSLPTPSDIFVSYSTFPGFVSWRDPKSGSWYVETLDDIFEQWAHSEDLQSLLLRVANAVSVKGIYKQMPGCFNFLRKKLFFKTS
